# Assay results from patent US20260158064A1 (NANJING PROBIO BIOTECH, published 2026).
# Where a chain is given by its changes, count along the chain named.
# B1: single domain antibody AHP15773 (Fc fusion)
# chain: EVQLVESGGGLVQPGGSLRLSCLASGSDFSDSAMGWYRQAPGKQREFVAAIGAGGITTYADSVKGRFTISRDSAKNIVYLQMSSLSPEDTAVYFCNFAPGWYPPGYQYWGQGTQVTVSS
# notes: VHH expressed from pcDNA3.4-Fc (HuIgG1); also called AHP15773-VHH; not shown: human IgG1 Fc of the pcDNA3.4-Fc (HuIgG1) expression vector
# B2: humanized single domain antibody AHP15773-VHH4 (Fc fusion)
# chain: B1 chain with L23A, S73N, I77T, V78L, S83N, S86R, P87A, Q114L
# notes: Humanized VHH expressed from pcDNA3.4-Fc (Human IgG1); not shown: human IgG1 Fc of the pcDNA3.4-Fc (Human IgG1) expression vector
# B3: single domain antibody AHP15485 (Fc fusion)
# chain: EVQLVESGGGLAQAGGSLSLSCTASGRSFSNFQMGWFRQAPGKEREFVAASGWSGGPTYYADSVKGRFTISTDDSKKTMYLQMNSLKPEDTAAYYCYEDRVLSGRPVRYWGRGTQVTVSS
# notes: Alpaca VHH expressed from pcDNA3.4-Fc (HuIgG1) in HEK293-6E; also called AHP15485-VHH; not shown: human IgG1 Fc of the pcDNA3.4-Fc (HuIgG1) expression vector
# B4: humanized single domain antibody AHP15485-VHH4 (Fc fusion)
# chain: EVQLVESGGGLVQPGGSLRLSCAASGRSFSNFQMGWFRQAPGKEREFVAASGWSGGPTYYADSVKGRFTISTDNSKNTLYLQMNSLRAEDTAVYYCYEDRVLSGRPVRYWGQGTLVTVSS
# notes: as for B2
# B5: humanized single domain antibody AHP15662-VHH4 (Fc fusion)
# chain: EVQLVESGGGLVQPGGSLRLSCAASGSISRFYAVGWYRQAPGKQRELVARISSGGSTYYADSVKGRFTISIDNSKNTLYLQMNSLRAEDTAVYYCNARNLWGQGTLVTVSS
# notes: as for B2
# B6: single domain antibody AHP15662 (Fc fusion)
# chain: B5 chain with S17T, D72N, L78V, S84N, R86K, A87P, L106Q
# notes: VHH expressed from pcDNA3.4-Fc (HuIgG1); also called AHP15662-VHH; not shown: human IgG1 Fc of the pcDNA3.4-Fc (HuIgG1) expression vector
# B7: single domain antibody AHP15776 (Fc fusion)
# chain: QVQLVESGGGLVQPGGSLTLSCAASQSISSIYLLGWYRQAPGKERESVARITTSGTTTYIADSVKGRFTLSRDNAKNTMYLQMNSLKPEDTAVYYCNVPFLVATARGNAYWGQGTQVTVSS
# notes: VHH expressed from pcDNA3.4-Fc (HuIgG1); not shown: human IgG1 Fc of the pcDNA3.4-Fc (HuIgG1) expression vector
# B8: single domain antibody AHP15547 (Fc fusion)
# chain: AVQLVDSGGGSVQPGESLTLSCTGSARFLSNYGMGWYRQFPGKMREMVAYETNRGNKRYAESVKGRFRIARDAAKTTVYLEMNSLKPEDTAVYYCNAESSGWGRRNYWGQGTQVTVSS
# notes: as for B7
# B9: single domain antibody AHP15485-VHH4-Variant2 (Fc fusion)
# chain: B4 chain with N31S, A61W, K65I
# notes: Fc format is inferred; not shown: human IgG1 Fc; vector and li
# B10: single domain antibody AHF22013 (Fc fusion)
# chain: B4 chain with N31S, A61W, K65I, P106H
# notes: as for B9
# B11: single domain antibody AHF22018 (Fc fusion)
# chain: B4 chain with N31S, A61W, V64W, P106W
# notes: not shown: human IgG1 Fc; vector and li
# B12: single domain antibody AHP15485-VHH4-Variant1 (Fc fusion)
# chain: B4 chain with A61W, K65I
# notes: as for B9
# B13: single domain antibody AHF21719 (Fc fusion)
# chain: B5 chain with S27Y, V34M, S56W
# notes: as for B9
# B14: single domain antibody AHF21711 (Fc fusion)
# chain: B5 chain with G26H, V34I, G54M, S56R
# notes: as for B9
# B15: single domain antibody AHF21720 (Fc fusion)
# chain: B5 chain with S27Y, V34M, G54L, S56W
# notes: as for B9
# B16: single domain antibody AHF21721 (Fc fusion)
# chain: B5 chain with S27F, V34M, G54M, S56W
# notes: as for B9
# B17: single domain antibody AHP15662-VHH4-Variant1 (Fc fusion)
# chain: B5 chain with G26Y, S27Y, S56W
# notes: as for B9
# B18: single domain antibody AHP15662-VHH4-Variant2 (Fc fusion)
# chain: B5 chain with G26Y, S27F, S56W
# notes: as for B9
# B19: single domain antibody AHP15662-VHH4-Variant3 (Fc fusion)
# chain: B5 chain with G26H, S27Y, S56W
# notes: as for B9
# Target: human ROR1 Frizzled-His domain protein (amino acid sequence at positions 165-305, Acrobiosystems, RO1-H5222) (human) (UniProt Q01973)
# Sequence (Q01973 165-305 limits assumed, form in doubt): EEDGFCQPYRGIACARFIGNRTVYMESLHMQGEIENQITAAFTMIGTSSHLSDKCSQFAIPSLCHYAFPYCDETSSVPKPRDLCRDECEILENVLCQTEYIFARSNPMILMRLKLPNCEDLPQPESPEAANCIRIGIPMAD
# Experiment: indirect ELISA, plate coated with human ROR1 Frizzled-His, HRP anti-human IgG Fc, OD450
row,Binder,EC50 (read off the curve) [µg/mL]
1,B1,0.07

# Target: T1, human ROR1-His protein (fused with a His protein tag, Acrobiosystems, RO1-H522y) (human, UniProt Q01973 30-403)
# T1 construct: also called recombinant human ROR1-His protein; not shown: His tag
# T1 sequence (Q01973 30-403 limits assumed): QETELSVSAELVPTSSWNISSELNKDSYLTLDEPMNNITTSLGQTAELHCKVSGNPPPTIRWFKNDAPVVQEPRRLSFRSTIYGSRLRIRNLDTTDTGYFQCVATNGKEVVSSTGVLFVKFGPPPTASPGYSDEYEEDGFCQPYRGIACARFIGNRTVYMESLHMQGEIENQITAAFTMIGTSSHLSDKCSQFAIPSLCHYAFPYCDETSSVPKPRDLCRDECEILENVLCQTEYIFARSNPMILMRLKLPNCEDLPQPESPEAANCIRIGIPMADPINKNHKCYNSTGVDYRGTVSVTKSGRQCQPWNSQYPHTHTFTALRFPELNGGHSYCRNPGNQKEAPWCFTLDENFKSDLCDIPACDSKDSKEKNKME
# Experiment: SPR Biacore T200, antibody Fc-captured, antigen as analyte
# Description: (§1) The affinity of purified antibodies for human ROR1-related proteins was determined separately using the surface plasmon resonance (SPR) biosensor Biacore T200 (GE Healthcare). The antibodies were immobilized on the sensor chip by the Fc capture method. Human ROR1-related proteins were used as analytes. Data for dissociation (kd) and association (ka) rate constants were obtained using the Biacore T200 evaluation software. The equilibrium dissociation constant (KD) was calculated from the ratio of kd to ka.
Binder,Kd [nM],koff [s⁻¹],kon [M⁻¹ s⁻¹]
B1,757,0.117,155000
B2,319,0.0587,184000
B3,280,0.063,225000
B4,320,0.0686,214000

# Target: T2, human ROR1 Frizzled-His domain protein (amino acid sequence at positions 165-305, Acrobiosystems, RO1-H5222) (human, UniProt Q01973 165-305)
# T2 construct: also called Human ROR1 Frizzled-His protein; not shown: His tag
# T2 sequence (Q01973 165-305 limits assumed, form in doubt): as the sequence (Q01973 165-305 limits assumed, form in doubt) above
# Experiment: as above
# Description: as §1
Binder,Kd [nM],koff [s⁻¹],kon [M⁻¹ s⁻¹]
B5,247,0.111,449000
B6,550,0.19,345000

# Target: T1, human ROR1-His protein (fused with a …)
# Experiment: indirect ELISA, antigen coated at 1 ug/ml
# Description: (§2) Indirect ELISA was used to assess the binding capability of the above purified antibodies to human ROR1-related recombinant proteins. ELISA plates (Nunc) were coated with 1 μg/ml of human ROR1-His protein, human ROR1 Frizzled-His domain protein, and human ROR1 Kringle-His domain protein in 100 μl/well of CBS overnight at 4° C. The plates were washed with PBS-T (0.05% Tween) and blocked with 300 μl/well of PBS containing 3% skim milk at 37° C. for 1 hour. Subsequently, the blocking solution was discarded, and 100 μl of purified antibody at 8 μg/ml (about 100 nM) was added to the first well and diluted according to a 3-fold gradient to obtain a total of 11 test concentration gradients. The plates were then incubated for 1 hour at room temperature. The plates were washed 3 times with PBST and incubated with 100 μl/well of horseradish peroxidase-conjugated mouse anti-human IgG Fc fragment (GenScript) for 0.5 hours at 37° C. The plates were washed five times with PBST, a TMB chromogenic solution (GenScript) was then added, and the plates were incubated for 15 minutes at room temperature in the dark. The reaction was stopped by adding 50 μl of 1 M HCl stop solution (Sigma). The plates were read at 450 nm using a microplate reader. FIGS. 1-3 show the results of the ELISA experiment on the binding of 8 positive recombinant antibody clones to ROR1-related antigen proteins, and the EC₅₀ for each antibody is as shown in Table 2 below: the antigen binding capacity of the antibodies tested was all equal to or higher than that of the positive reference antibody R11-scFv.
row,Binder,EC50 [µg/mL]
1,B1,0.0155
2,B3,0.0061
3,B6,0.0105
4,B7,0.0109
5,B8,0.0105

# Target: T2, human ROR1 Frizzled-His domain protein …
# Experiment: indirect ELISA, antigen coated at 1 ug/ml
# Description: as §2
row,Binder,EC50 [µg/mL]
1,B6,0.0105
2,B7,0.023
3,B8,0.0165

# Target: T3, mouse ROR1 expressed on CHO cells (CHO-K1/Mouse ROR1 stable cells) (mouse, UniProt Q9Z139 30-937)
# T3 construct: whole, on cells
# T3 sequence (Q9Z139 30-937): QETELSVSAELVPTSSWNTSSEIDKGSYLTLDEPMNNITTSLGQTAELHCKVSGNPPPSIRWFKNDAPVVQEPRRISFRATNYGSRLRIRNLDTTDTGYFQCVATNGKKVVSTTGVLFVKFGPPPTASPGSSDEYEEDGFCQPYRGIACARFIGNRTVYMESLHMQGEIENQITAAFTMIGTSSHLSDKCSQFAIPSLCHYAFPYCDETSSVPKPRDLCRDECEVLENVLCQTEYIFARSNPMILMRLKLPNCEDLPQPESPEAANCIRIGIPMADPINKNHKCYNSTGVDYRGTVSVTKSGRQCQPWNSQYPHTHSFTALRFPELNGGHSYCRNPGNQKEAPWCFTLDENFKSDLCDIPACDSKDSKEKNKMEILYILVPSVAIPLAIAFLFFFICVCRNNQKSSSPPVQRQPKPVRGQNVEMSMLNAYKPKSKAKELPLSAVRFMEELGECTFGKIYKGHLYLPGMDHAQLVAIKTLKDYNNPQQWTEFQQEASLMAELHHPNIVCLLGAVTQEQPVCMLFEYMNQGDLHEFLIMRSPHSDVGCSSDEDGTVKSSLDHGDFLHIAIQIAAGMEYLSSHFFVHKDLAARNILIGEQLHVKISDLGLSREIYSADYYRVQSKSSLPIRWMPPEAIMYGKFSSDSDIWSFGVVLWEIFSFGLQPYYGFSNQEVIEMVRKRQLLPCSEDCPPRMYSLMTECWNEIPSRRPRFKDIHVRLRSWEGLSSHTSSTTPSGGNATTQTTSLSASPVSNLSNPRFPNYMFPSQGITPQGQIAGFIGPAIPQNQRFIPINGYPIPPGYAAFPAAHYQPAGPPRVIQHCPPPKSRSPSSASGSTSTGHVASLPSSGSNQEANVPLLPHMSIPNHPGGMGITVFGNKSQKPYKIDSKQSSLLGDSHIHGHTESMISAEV
# Experiment: flow cytometry, antibody at 10 ug/ml on CHO cells
# Description: (§3) CHO cells expressing human and mouse ROR1 and parental cells as the negative control for detection were collected and washed 3 times with PBS. 2.5×10⁵ test cells and 100 μl of purified antibody at 10 μg/ml were added to a 96-well plate, and the plate was incubated at 4° C. for 1 hour. The cells were then washed 3 times with PBS, 100 μl of iFluor-labeled goat anti-human IgG, an Fcγ-specific fragment antibody, was added, and the plate was incubated at 4° C. for 45 minutes. Finally, the cells were washed 3 times with PBS, and the signals were read using FACS BD Calibur.
row,Binder,binding result
1,B7,binds
2,B8,binds

# Target: T4, human ROR1 expressed on CHO cells (CHO-K1/Human ROR1 stable cells) (human, UniProt Q01973 30-937)
# T4 construct: whole, on cells; also called CHO-K1/ROR1/Luc (Nanjing Probio, Cat #RD00949)
# T4 sequence (Q01973 30-937): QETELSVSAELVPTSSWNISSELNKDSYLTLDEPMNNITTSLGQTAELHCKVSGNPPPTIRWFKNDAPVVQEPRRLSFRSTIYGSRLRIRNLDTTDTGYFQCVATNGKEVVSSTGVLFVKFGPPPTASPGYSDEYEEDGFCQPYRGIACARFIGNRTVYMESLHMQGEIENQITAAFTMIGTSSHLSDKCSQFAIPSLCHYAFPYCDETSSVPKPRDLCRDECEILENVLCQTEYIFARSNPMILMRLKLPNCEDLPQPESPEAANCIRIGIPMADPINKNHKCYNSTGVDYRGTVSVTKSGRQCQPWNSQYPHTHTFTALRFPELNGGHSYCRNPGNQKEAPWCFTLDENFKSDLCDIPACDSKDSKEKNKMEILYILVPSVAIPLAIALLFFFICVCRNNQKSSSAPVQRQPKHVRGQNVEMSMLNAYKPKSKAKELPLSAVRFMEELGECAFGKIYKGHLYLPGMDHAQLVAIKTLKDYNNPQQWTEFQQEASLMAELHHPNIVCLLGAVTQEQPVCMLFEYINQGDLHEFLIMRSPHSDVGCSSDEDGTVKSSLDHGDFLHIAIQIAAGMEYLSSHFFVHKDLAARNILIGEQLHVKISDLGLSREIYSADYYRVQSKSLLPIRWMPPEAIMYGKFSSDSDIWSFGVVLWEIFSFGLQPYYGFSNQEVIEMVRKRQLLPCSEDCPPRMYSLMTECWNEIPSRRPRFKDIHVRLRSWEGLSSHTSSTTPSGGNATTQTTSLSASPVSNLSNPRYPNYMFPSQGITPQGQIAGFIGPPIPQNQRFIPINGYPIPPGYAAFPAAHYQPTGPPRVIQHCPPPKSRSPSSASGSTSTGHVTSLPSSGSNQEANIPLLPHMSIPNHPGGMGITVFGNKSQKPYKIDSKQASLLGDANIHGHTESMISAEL
# Experiment: flow cytometry, 10 ug/ml antibody on Human ROR1-CHO-K1 cells (curve 1), fluorescent secondary antibody
# Description: as §3
row,Binder,Geometric Mean : Alexa Fluor 647-H
1,B1,33400
2,B2,28700
3,B3,61400
4,B5,55400
5,B6,56400
6,B4,38500

# Target: T3, mouse ROR1 expressed on CHO cells …
# Experiment: flow cytometry, 10 ug/ml antibody on Mouse ROR1-CHO-K1 cells (curve 2), fluorescent secondary antibody
# Description: as §3
row,Binder,Geometric Mean : Alexa Fluor 647-H
1,B1,54900
2,B2,48500
3,B3,31400
4,B5,52800
5,B6,75600
6,B4,8630

# Target: T1, human ROR1-His protein (fused with a …)
# Experiment: SPR Biacore T200, method as Example 6 (antibody Fc-captured, antigen as analyte)
# Description: as §1
# (§4) According to the mutation status of the improved clones in the precise saturation mutation library, the combinatorial mutations and the relevant primers for library construction for the second round were designed. The combinatorial mutation library construction was performed still using the prokaryotic soluble expression plasmid of the humanized single domain antibody as the template. The subsequent screening process was the same as that for the precise saturation mutation library. Finally, the top 5 or 7 clones ranked by the improvement fold in affinity were selected for recombinant verification. 5 clones with improved affinity (AHF22016, AHF22018, AHF22013, AHP15485-VHH4-Variant1, and AHP15485-VHH4-Variant2) were obtained from the humanized antibody AHP15485 through affinity maturation screening, and were subjected to eukaryotic expression and purification, as well as subsequent affinity detection at various concentrations. 7 clones (AHP15662-VHH4-Variant1, AHP15662-VHH4-Variant2, AHP15662-VHH4-Variant3, AHF21711, AHF21719, AHF21720, and AHF21721) were obtained from AHP15662-VHH4.
Binder,Kd [nM],koff [s⁻¹],kon [M⁻¹ s⁻¹]
B9,21.4,0.0018,84000
B4,290,0.0547,189000
B10,8.91,0.000374,42000
B11,20.3,0.000884,43500
B12,184,0.0153,83100

# Target: T2, human ROR1 Frizzled-His domain protein …
# Experiment: as above
# Description: as §1, §4
Binder,Kd [nM],koff [s⁻¹],kon [M⁻¹ s⁻¹]
B13,21.6,0.00169,78100
B5,294,0.103,350000
B14,19.3,0.00174,90100
B15,16.9,0.00124,73600
B16,15.6,0.00113,72500
B17,46.3,0.00701,151000
B18,75.3,0.0119,159000
B19,39.5,0.0062,157000
